According to PMC12796099:

Target: human somatostatin receptor 5 (SSTR5) (human) (UniProt P35346)
Chain of UniProt P35346 (P35346 whole entry): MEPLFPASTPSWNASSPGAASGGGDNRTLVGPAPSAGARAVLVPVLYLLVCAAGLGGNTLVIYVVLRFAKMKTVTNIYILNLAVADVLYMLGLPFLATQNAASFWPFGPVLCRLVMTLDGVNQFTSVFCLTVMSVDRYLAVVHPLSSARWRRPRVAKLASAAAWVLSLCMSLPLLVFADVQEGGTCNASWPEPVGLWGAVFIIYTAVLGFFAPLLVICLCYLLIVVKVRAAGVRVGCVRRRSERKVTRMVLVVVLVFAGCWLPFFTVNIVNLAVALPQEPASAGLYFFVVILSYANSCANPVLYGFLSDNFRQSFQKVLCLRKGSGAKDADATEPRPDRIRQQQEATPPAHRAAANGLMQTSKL

SRIF-14-Sed1 periplasmic display fusion (from UniProt P61278 103-116) (ligand)
autocrine GPCR activation by αPre-ligand-display fusion, DCyFIR mTq2 transcriptional reporter, relative to the Ccw14 fusion (% of the activity of the Ccw14 fusion): 30
